The values that follow come from article PMC3869717, “The PCNA Interaction Protein Box Sequence in Rad54 Is an Integral Part of Its ATPase Domain and Is Required for Efficient DNA Repair and Recombination”.

Numbering of substitutions follows the chain as printed.

In series [1] the target is T1, Rad54-AA (Saccharomyces cerevisiae, UniProt P32863 1-898, Y494A;F495A).
T1 sequence: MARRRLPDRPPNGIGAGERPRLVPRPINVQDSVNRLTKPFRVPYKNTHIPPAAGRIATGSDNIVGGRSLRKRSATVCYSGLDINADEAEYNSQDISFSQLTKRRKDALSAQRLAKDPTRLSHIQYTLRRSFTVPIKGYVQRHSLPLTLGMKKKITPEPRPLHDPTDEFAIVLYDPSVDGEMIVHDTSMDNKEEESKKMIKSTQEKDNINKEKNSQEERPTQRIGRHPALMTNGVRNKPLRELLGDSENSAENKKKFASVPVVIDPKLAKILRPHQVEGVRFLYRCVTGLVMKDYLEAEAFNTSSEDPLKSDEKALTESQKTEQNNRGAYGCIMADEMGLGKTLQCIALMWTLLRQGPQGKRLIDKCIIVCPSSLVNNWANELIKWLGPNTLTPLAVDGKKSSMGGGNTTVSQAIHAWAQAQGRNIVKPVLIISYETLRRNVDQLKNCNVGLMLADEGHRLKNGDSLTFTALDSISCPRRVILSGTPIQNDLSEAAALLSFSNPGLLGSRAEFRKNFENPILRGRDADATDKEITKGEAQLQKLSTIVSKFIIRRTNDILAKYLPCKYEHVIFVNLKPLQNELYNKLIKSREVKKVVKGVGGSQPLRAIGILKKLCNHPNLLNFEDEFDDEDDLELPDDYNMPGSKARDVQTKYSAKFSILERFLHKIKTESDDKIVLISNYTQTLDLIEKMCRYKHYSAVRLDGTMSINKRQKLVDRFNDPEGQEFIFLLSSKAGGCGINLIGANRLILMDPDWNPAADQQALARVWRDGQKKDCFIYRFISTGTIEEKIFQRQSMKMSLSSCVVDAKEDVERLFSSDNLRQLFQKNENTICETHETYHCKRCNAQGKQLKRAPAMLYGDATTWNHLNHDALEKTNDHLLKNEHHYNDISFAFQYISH
Briefly: EMSA (native PAGE); no ATP; equal to wild type; Buffer D: 40 mM Tris-HCl pH 7.8, 50 mM KCl, 1 mM DTT, 100 µg/ml BSA, 30 °C, 10 min; plasmid 30 µM nucleotides with 31.25-1000 nM protein; 49-mer 3 nM with 12.5-200 nM protein. The note with it: protein: recombinant; blunt. A general note: In EMSA bound probe runs differently from free probe, usually more slowly.

The target in series [2] is T2, Rad54 (Saccharomyces cerevisiae, UniProt P32863 1-898).
T2 sequence: T1 sequence with A494Y, A495F
Briefly: EMSA (native PAGE); no ATP; Buffer D: 40 mM Tris-HCl pH 7.8, 50 mM KCl, 1 mM DTT, 100 µg/ml BSA, 30 °C, 10 min; plasmid 30 µM nucleotides with 31.25-1000 nM protein; 49-mer 3 nM with 12.5-200 nM protein. The note with it: protein: recombinant; blunt.

B1: dsDNA 49-mer (dsDNA)
DNA 1: AGCTACCATGCCTGCACGAATTAAGCAATTCGTAATCATGGTCATAGCT
DNA 2: AGCTATGACCATGATTACGAATTGCTTAATTCGTGCAGGCATGGTAGCT
Regarding B1, the binding result in series [1] and in series [2] was “binds” throughout.
